These results are taken from patent publication US20240369485A1, “FLUORESCENT SENSOR FOR MONITORING CALCIUM DYNAMICS” (priority 2021, published 2024).

In one series the target is T1, CaSR (wildtype) (Homo sapiens, UniProt P41180).
T1 construct: expressed in transfected cells; host or cells: HEK293
T1 sequence (P41180 20-1078): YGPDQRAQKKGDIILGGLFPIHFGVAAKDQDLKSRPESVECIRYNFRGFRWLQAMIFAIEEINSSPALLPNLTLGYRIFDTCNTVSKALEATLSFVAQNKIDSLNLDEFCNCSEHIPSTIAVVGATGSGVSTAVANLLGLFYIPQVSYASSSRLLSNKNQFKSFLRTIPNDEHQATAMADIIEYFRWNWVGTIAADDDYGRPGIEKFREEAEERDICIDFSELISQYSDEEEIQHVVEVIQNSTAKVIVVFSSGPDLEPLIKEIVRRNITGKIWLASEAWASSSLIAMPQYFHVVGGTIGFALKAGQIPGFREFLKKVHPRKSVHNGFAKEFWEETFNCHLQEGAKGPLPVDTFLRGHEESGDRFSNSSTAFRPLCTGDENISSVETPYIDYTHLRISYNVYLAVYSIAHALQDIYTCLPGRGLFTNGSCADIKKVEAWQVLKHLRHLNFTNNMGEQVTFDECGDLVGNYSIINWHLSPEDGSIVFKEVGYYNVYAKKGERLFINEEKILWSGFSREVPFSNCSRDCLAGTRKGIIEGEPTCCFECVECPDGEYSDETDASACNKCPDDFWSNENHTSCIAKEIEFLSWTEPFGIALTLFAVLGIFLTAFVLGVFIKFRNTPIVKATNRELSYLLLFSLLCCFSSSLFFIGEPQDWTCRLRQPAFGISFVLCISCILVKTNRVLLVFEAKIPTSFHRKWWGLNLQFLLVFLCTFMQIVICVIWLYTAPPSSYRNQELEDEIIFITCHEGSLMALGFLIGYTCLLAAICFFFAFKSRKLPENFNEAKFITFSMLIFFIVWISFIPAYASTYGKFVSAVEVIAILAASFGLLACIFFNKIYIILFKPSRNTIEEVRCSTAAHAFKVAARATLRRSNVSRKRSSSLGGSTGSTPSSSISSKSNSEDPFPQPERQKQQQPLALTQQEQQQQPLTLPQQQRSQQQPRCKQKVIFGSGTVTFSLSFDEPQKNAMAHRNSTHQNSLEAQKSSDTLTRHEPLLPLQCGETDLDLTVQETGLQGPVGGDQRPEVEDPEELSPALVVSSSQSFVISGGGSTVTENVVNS
As to the kind of experiment: Epifluorescence imaging of CaSR mediated ER Ca^2+ dynamics using R-CatchER and Fura-2 in HEK293 cells. Conditions: for effect on frequency of ER Ca^2+ oscillations: in the presence of Ca^2+, HEK293 CaSR. Type of series: cell-based. As to the method: Cell culture and transfection. C2C12, HEK293 and HeLa cells were cultured and maintained in Dulbecco's modified Eagle's medium (DMEM) supplemented with 10% fetal bovine serum (FBS) and high glucose (4.5 g/L) at 37° C. R-CatchER, G-CatchER2, G-CEPIA1er, R-CEPIA1er or R-CatchER with GFP-CaSR (wt and mutations) were transfected into cells using Lipofectamine 3000 (Life Technologies), following the manufacturer's instructions. Seed cells onto sterilized 22 mm×40 mm glass microscope slides in 6 cm dishes until about 70% confluency, the day of transfection. The next day, 2 μg of plasmid were mixed with transfection reagent in the reduced serum media Opti-MEM for 4-6 h at 37° C. The media was then replaced with 3 mL of fresh DMEM and incubated at 37° C. for 48 h.
Epifluorescence imaging of class C GPCR mediated ER Ca^2+ dynamics using R-CatchER and Fura-2. HEK293 Cells transfected with R-CatchER and GFP-CaSR (wt and mutations) were incubated with Fura-2 for 30 mins at 37° C. then washed with 2 mL of physiological Ringer buffer (10 mM HEPES, 140 mM NaCl, 5 mM KCl, 1.2 mM MgCl2, 1.8 mM CaCl2) at pH 7.4). The coverslips were mounted on a bath chamber and placed on the stage of a Leica DM6100B inverted microscope with a Hamamatsu cooled EM-CCD camera and illuminated with a Till Polychrome V Xenon lamp. Cells were illuminated at 340 nm, 380 nm and 569 nm, in real-time, as cells were exposed to different concentrations of Ca^2+, cinacalcet, Phe, TNCA, or NPS2143.

Series [1] can be described thus: Quantum yield, extinction coefficient, and brightness determination. Type of series: physicochemical. On the set-up: key to Brightness: extinction coefficient × quantum yield. As to the method: Quantum yield, extinction coefficient, and brightness determination. The quantum yield values of all the variants were determined by measuring the emitted fluorescence intensities and absorbance intensities of the chromophore at different protein concentrations. The wildtype was used as a reference to calculate quantum yield. Brightness was defined as a visual perception in which a source appears to emit or reflect a given amount of light, which was obtained by multiplying the extinction coefficient and the quantum yield.

Series [2] in a line: Calcium (Ca^2+) binding assay: fluorescence/absorbance titration of purified protein. To be noted: for Aholo/Aapo: absorbance at 569. As to the method: Calcium (Ca^2+) binding assay. 10 μM protein samples of mApple, EGFP, and mCherry variants were titrated with different concentrations of Ca^2+. Data were fitted with a 1:1 binding equation. Fluorescence intensities were collected using a Spectrofluorimeter (Photon Technology International, Inc.) and the absorbance values of Ca^2+-free and Ca^2+-loaded forms were determined using a Shimadzu UV-1601 spectrophotome.
Ca^2+ binding assay. Fluorescence measurements of mApple variants with increasing Ca^2+ concentrations were done in order to obtain the affinity of the sensor for Ca^2+ in vitro. Samples of 10 μM mApple variants with 5 μM EGTA were prepared in triplicate in 1 mL volumes in 10 mM Tris, pH 7.4. The samples were placed in quartz fluorescence cuvettes, and metal ion was titrated into each sample, in a stepwise manner, using 0.1 M and 1 M metal stock solutions. The fluorescence response of the indicator to increasing Ca^2+ concentrations was monitored using a fluorescence spectrophotometer (Photon Technology International, Canada) with the Felix32 fluorescence analysis software. The absorbance spectra before and after titration were obtained using a Shimadzu UV-1601 spectrophotometer.

Series [3] can be described thus: pKa determination of the chromophore. The class given is physicochemical. The protocol: pKa determination. To measure the chromophore pKa of mApple, EGFP, and mCherry variants, the proteins were prepared in buffers (sodium acetate buffer for pH 3-5, MES buffer for pH 5-6, HEPES buffer for pH 6.5-8, TRIS buffer for pH 8.5-9) covering a pH range from 3 to 10. All samples were Incubated at 4° C. overnight, then the following day, the absorbance and fluorescence spectra were collected using a Shimadzu UV-1601 spectrophotometer and the Spectrofluorimeter.

The mark [4] stands for this setting: mCherry based indicators, Ca^2+ induced fluorescence change.

Changes are numbered by the printed parent chain. Numbers in names are those of the source. Entries after “also recorded” stand apart in the source; their conditions may differ.

For the molecule `C[C@@H](NCCCc1cccc(C(F)(F)F)c1)c1cccc2ccccc12` [Cinacalcet], at CaSR (wildtype) (R-CatchER), the “effect on frequency of ER Ca^2+ oscillations” value (from here on “effect on frequency”) is “increased the frequency”.
Turning to `CC(C)(Cc1ccc2ccccc2c1)NC[C@@H](O)COc1cccc(Cl)c1C#N` [NPS2143], the “effect on frequency” value on CaSR (wildtype) (R-CatchER) is listed as “decreased the frequency”.
`N[C@@H](Cc1ccccc1)C(=O)O` [L-Phe]: the “Ca^2+ release from the ER, area under the curve (AUC)” value at CaSR (wildtype) (5 mM L-Phe alone, R-CatchER) was found to be 19.54±1.08. In addition, the “effect on frequency” value on CaSR (wildtype) (R-CatchER) is given as “increased the frequency”. The concentration for a half-maximal effect (EC50) at CaSR (wildtype) (in the presence of L-Phe, read out with R-CatchER, read-out: EC50 of ER Ca^2+ mobilization by extracellular Ca^2+) amounted to 2.7 ± 0.1 mM.
Regarding `NCCOB(c1ccccc1)c1ccccc1` [2-APB, 2-Aminoethoxydiphenyl borate], the “effect on cytosolic and ER Ca^2+ oscillations” value at CaSR (wildtype) (Tg 3 μM, 2-APB 100 μM, ionomycin 20 μM with 10 mM Ca^2+) is reported as “eliminated; also recorded: elimination”.

B1: mApple: red fluorescent scaffold protein, SEQ ID NO: 11 (protein)
chain: EENNMAIIKEFMRFKVHMEGSVNGHEFEIEGEGEGRPYEAFQTAKLKVTKGGPLPFAWDILSPQFMYGSKVYIKHPADIPDYFKLSFPEGFRWERVMNFEDGGIIHVNQDSSLQDGVFIYKVKLRGTNFPSDGPVMQKKTMGWEASEERMYPEDGALKSEIKKRLKLKDGGHYAAEVKTTYKAKKPVQLPGAYIVDIKLDIVSHNEDYTIVEQYERAEGRHSTGGMDELYK
On to B1, for which, in series [1] (scaffold, no apo/holo stated), the Brightness was 0.37 ± 0.01, the “Extinction coefficient” value came out at 75000 M⁻¹ cm⁻¹ and the Fluorescence quantum yield is recorded as 0.49 ± 0.01. In addition, the Fmax/Fmin in series [2] (EGFP and mApple variants) is 1.02. Further, in series [2], the Aholo/Aapo is on record as 1.07 (569). Further, the pka in series [3] (scaffold, no apo/holo stated) is 6.26 ± 0.23.

B2: mApple K198D: mApple variant, SEQ ID NO: 23 (protein)
chain: B1 chain with K198D
Consider B2, for which, in series [1] (Apo), the Brightness worked out at 0.32 ± 0.01, the “Extinction coefficient” value is 59000 M⁻¹ cm⁻¹ and the Fluorescence quantum yield is 0.54 ± 0.01. In series [1] (Holo), the Brightness stood at 0.42 ± 0.03, the “Extinction coefficient” value was found to be 69000 M⁻¹ cm⁻¹ and the Fluorescence quantum yield was found to be 0.61 ± 0.03. In addition, the Fmax/Fmin in series [2] (EGFP and mApple variants) amounted to 1.17. For the same molecule, the Aholo/Aapo in series [2] is reported as 1.41 (569). In series [3] (Apo), this molecule had a pka of 6.68 ± 0.09. In addition, the pka in series [3] (Holo) was 6.90 ± 0.12.

B3: mApple A145D/K198D/R216E: mApple variant, SEQ ID NO: 26 (protein)
chain: B1 chain with A145D, K198D, R216E
In the case of B3, the Fmax/Fmin in series [2] (EGFP and mApple variants) is reported as 3.75. Besides, the Aholo/Aapo in series [2] is reported as 1.57 (569).

B4: mApple A145D/E147D/K198D/R216E: mApple variant, SEQ ID NO: 28 (protein)
chain: B1 chain with A145D, E147D, K198D, R216E
Take B4: in series [2] (EGFP and mApple variants), the Fmax/Fmin is recorded as 3.23. For the same molecule, in series [2], the Aholo/Aapo was 1.84 (569).

B5: mApple K198D/R216D: mApple variant, SEQ ID NO: 24 (protein)
chain: B1 chain with K198D, R216D
On to B5, for which the Brightness in series [1] (Apo) is recorded as 0.15 ± 0.01; in series [1] (Holo), 0.37 ± 0.01. In addition, the “Extinction coefficient” value in series [1] (Apo) worked out at 38000 M⁻¹ cm⁻¹; in series [1] (Holo), 65000 M⁻¹ cm⁻¹. In addition, the Fluorescence quantum yield in series [1] (Apo) was 0.40 ± 0.01; in series [1] (Holo), 0.58 ± 0.01. The Fmax/Fmin in series [2] (EGFP and mApple variants) came to 2.48. Besides, the Aholo/Aapo in series [2] is given as 2.21 (569). The pka is 7.04 ± 0.11 in series [3] (Apo) and 6.56 ± 0.11 in series [3] (Holo).

B6: mApple A145E/K198E/R216E: mApple variant, SEQ ID NO: 30 (protein)
chain: B1 chain with A145E, K198E, R216E
Take B6: the Fmax/Fmin in series [2] (EGFP and mApple variants) is 2.15. For the same molecule, in series [2], the Aholo/Aapo is recorded as 1.04 (569).

B7: mApple A145E/E147D/K198D/R216E: mApple variant, SEQ ID NO: 27 (protein)
chain: B1 chain with A145E, E147D, K198D, R216E
B7: the Fmax/Fmin in series [2] (EGFP and mApple variants) is 4.43. For the same molecule, the Aholo/Aapo in series [2] is 1.66 (569).

B8: mApple A145E/K198D/R216E/E218D: mApple variant, SEQ ID NO: 29 (protein)
chain: B1 chain with A145E, K198D, R216E, E218D
Regarding B8, the Fmax/Fmin in series [2] (EGFP and mApple variants) worked out at 2.64. Further, in series [2], the Aholo/Aapo is on record as 1.59 (569).

B9: mCherry A145E/N196D/K198D: mCherry based indicator attempt, 4 negatively charged residues (protein)
chain: EEDNMAIIKEFMRFKVHMEGSVNGHEFEIEGEGEGRPYEGTQTAKLKVTKGGPLPFAWDILSPQFMYGSKAYVKHPADIPDYLKLSFPEGFKWERVMNFEDGGVVTVTQDSSLQDGEFIYKVKLRGTNFPSDGPVMQKKTMGWEESSERMYPEDGALKGEIKQRLKLKDGGHYDAEVKTTYKAKKPVQLPGAYNVDIDLDITSHNEDYTIVEQYERAEGRHSTGGMDELYK
In the case of B9, the Fmax/Fmin in series [2] (setting [4]) was determined as 0.93 ± 0.02.

B10: mCherry A145E/N196D/K198D/R216E: mCherry based indicator attempt, 5 negatively charged residues (protein)
chain: B9 chain with R216E
For B10, the Fmax/Fmin in series [2] (setting [4]) is 1.05 ± 0.06.
